Here are results for one molecule from patent US8586538B2, “Method of treating a patient suffering from a bleeding disorder comprising administering an antibody against the A3-C1 of FVIII” (Stichting Sanquin Bloedvoorziening, priority 2002, dated 2013).

Residue numbers refer to the chain shown, from its start.

The target in one assay is FVIIIa-FIXa complex (Homo sapiens, UniProt P00451+P00740). The following applies: by interfering with the assembly of the FVIIIa-FIXa complex; cited from earlier work.
Chain of FVIIIa-FIXa complex (P00740 47-191 limits assumed, one chain of several): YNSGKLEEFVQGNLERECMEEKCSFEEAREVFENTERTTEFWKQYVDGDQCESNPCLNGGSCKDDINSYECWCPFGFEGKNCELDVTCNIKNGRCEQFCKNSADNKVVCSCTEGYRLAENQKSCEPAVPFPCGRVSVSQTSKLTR
Assay [1] concerns the target T1, wild-type recombinant FVIII light chain (Homo sapiens, UniProt P00451).
T1 construct: FVIII/FV^1811-1818 light chain chimera and wild-type FVIII light chain were purified employing Q-Sepharose chromatography; made in house; host or cells: murine fibroblasts (C127) cells
T1 sequence (P00451 1668-2351 limits assumed): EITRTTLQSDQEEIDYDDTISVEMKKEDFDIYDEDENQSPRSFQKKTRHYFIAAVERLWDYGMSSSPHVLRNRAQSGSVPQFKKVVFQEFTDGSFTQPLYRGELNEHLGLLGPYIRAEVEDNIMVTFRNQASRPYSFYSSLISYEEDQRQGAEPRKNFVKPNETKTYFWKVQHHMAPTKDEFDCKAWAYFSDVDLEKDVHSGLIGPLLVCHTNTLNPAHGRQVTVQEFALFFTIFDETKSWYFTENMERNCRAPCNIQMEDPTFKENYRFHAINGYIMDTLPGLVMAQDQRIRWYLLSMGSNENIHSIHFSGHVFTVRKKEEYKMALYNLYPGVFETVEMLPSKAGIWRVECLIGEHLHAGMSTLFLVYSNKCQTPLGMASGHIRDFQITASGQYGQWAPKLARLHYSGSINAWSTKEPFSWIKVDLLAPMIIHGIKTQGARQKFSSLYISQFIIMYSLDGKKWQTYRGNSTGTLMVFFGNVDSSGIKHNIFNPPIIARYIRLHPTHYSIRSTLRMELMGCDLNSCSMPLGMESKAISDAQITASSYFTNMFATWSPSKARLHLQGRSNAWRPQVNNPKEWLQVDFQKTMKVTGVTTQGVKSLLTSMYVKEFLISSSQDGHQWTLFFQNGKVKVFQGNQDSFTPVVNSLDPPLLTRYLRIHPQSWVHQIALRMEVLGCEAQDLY
Description: SPR binding of scFv KM41 to wild-type recombinant FVIII light chain. The following applies: scFv 40 nM. The protocol: (§1) FIG. 7. Binding of scFv KM41 to the FVIII/FV^1811-1818 light chain chimera. ScFv EL14 at a CM5 sensor chip (67 fmol/mm^2) was incubated with either the recombinant wild-type FVIII light chain or the recombinant FVIII/FV^1811-1818 chimera till a density of 20 fmol/mm^2, in 150 mM NaCl, 50 mM Tris (pH 7.4). ScFv KM41 (40 nM) was passed over two separate channels with immobilized intact FVIII light chain (I) or FVIII/FV^1811-1818 chimera (II), respectively. Response is indicated as Resonance Units (RU) and is corrected for nonspecific binding.
(§2) The kinetics of protein interactions was determined by surface plasmon resonance (SPR) analysis, employing a BIAcore™2000 biosensor system (Biacore AS, Uppsala, Sweden). […] Association of analyte was assessed in 150 mM NaCl, 2 mM CaCl2, 0.005% (v/v) Tween® 20, and 20 mM Hepes (pH 7.4) for 2 min, at a flow rate of 20 μl/min at 25° C. […] The association (kon) and dissociation (koff) rate constants were determined by using the BIAevaluation software 3.1 (Biacore AB, Uppsala, Sweden). […] Equilibrium dissociation constants (kd) were calculated from the ratio koff/kon. […]

Assay [2] concerns the target T2, FVIII/FV^1811-1818 chimera (Homo sapiens, UniProt P00451, E1830S/F1835V/K1832Y/K1837H/T1831S).
T2 construct: FVIII/FV^1811-1818 light chain chimera and wild-type FVIII light chain were purified employing Q-Sepharose chromatography; made in house; host or cells: murine fibroblasts (C127) cells
T2 sequence (P00451 1668-2351 E1830S/T1831S/K1832Y/F1835V/K1837H limits assumed): T1 sequence (P00451 1668-2351 limits assumed) with E163S, T164S, K165Y, F168V, K170H
Description: SPR binding of scFv KM41 to FVIII/FV^1811-1818 light chain chimera. The following applies: scFv 40 nM. As to the method:
as §1, §2

B1: scFv KM41: scFv antibody fragment directed against FVIII region Arg^1803-Lys^1818 (protein)
scFv: QVQLLQSAADVKKPGASVKVSCTASGYIFTSYDIDWVRQATGQGLEWMGWMNPNSGNAGFAQKFKGRLTLTRDTSTSTAYMELRRLESEDTAVYYCARSTPHSYSGSGLPPTSDSWGQGTLVTVSSGGGGSGGGGSGGGGSEIVLTQSPGTLSLSPGERATLSCRASQSVSSSFLGWYQQKPGQAPRLLIYGASSRATGIPDRFSGSGSGTDFTLTISRLEPEDFAVYYCQQYGISPLTFGGGTKLEIKRAAAEQKLISEEDLNGAAHHHHHH
As for B1, the “Inhibition of FVIII procoagulant activity” value with FVIIIa-FIXa complex is reported as “effective inhibitors”. The “Binding of scFv to immobilized wild-type recombinant FVIII light chain” value in assay [1] is “readily reacted”. Further, the “Binding of scFv to immobilized FVIII/FV^1811-1818 chimera” value in assay [2] was “did not recognize”.
